Here are results for 7 molecules from patent EP0561496A2 (NEW ENGLAND MEDICAL CENTER HOSPITALS, INC., priority 1992, dated 1993).

The target of experiment [1] is canine parietal cell gastrin receptor (recombinant, clone GR-1, expressed in transfected COS-7 cells) (canine). Nature of the experiment: competition against 125I-CCK-8, intact GR-1 transfected COS-7 cells.
Experiment [2] shares this target. Put plainly: cell-based or functional assay.
The target is the same in experiment [3]. Put plainly: competition against 125I-CCK-8, isolated membranes of GR-1 transfected COS-7 cells.
The target of experiment [4] is T1, human brain CCK-B receptor (Homo sapiens, UniProt P32239).
T1 construct: isolate the corresponding full length human CCK-B receptor cDNA from a fetal (week 23) human brain library; expressed in transfected cells; host or cells: COS-7 cells transiently transfected with hCCKB-pcDNA I
T1 sequence (P32239 1-447): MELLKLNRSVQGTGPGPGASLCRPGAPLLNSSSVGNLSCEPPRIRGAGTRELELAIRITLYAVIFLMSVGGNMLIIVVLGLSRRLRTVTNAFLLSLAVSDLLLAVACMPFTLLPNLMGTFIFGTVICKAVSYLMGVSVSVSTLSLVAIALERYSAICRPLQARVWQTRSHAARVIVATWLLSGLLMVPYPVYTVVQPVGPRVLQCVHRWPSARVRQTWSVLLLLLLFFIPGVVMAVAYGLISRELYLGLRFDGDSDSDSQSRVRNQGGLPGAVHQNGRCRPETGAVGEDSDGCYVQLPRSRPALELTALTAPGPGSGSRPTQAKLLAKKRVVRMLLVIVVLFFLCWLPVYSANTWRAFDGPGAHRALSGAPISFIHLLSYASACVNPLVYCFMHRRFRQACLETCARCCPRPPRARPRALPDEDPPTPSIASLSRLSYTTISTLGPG
Put plainly: Competition binding of 125I CCK-8 to COS-7 cells transfected with hCCKB-pcDNA I. Conditions: recombinant human CCK-B receptor.

Experiment [5] deals with T2, recombinant GR-1 receptor (canine parietal cell gastrin receptor) (Canis lupus familiaris, UniProt P30552).
T2 construct: expressed in transfected cells; host or cells: COS-7 cells transiently transfected with GR-1 in pCDNA-1
T2 sequence (P30552 1-453): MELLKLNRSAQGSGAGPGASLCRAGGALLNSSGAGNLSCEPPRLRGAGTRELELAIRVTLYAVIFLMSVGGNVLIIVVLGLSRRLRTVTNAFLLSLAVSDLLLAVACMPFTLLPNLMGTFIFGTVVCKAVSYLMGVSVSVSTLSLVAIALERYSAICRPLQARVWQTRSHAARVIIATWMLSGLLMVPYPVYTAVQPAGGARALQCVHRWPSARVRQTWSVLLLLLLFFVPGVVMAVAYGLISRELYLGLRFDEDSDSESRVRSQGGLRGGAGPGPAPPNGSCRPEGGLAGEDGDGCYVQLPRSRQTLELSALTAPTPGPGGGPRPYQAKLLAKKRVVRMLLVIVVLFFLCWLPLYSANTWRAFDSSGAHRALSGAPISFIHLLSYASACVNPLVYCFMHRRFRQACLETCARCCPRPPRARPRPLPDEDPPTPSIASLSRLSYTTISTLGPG
Put plainly: Competition binding of 125I-CCK-8 to intact GR-1 transfected COS-7 cells.
Description: COS-7 cells (1.5x 10⁶) were plated in 10 cm culture dishes (Nunc) and grown in DMEM/ 10% fetal calf serum, 5% CO₂ at 37°C. […] Twenty-four hours following transfection, cells were split into 24-well dishes (Nunc), 5000 cells/well. […] Equilibrium binding occurred after incubation for 80 min at 37°C. Cell monolayers were subsequently washed three times and bound radioactivity was quantified after cell hydrolysis in 1 N NaOH.

The target of experiment [6] is T2, recombinant GR-1 receptor (canine parietal cell gastrin receptor). Put plainly: Competition binding in isolated plasma membranes from GR-1 transfected COS-7 cells. Conditions: isolated membranes from transiently transfected COS-7 cells, 60 min at 22°C; read-out: IC₅₀.
Description: Binding parameters were also measured in isolated plasma membranes from COS-7 cells transfected with GR-1. Binding was performed for 60 min at 22°C.
For experiment [7], the target named is gastrin receptor on native canine parietal cells (canine). Nature of the experiment: radioligand saturation binding, native parietal cells.
The target of experiment [8] is canine parietal cell gastrin receptor (recombinant, clone GR-1, expressed in transfected COS-7 cells) (canine). Put plainly: 125I-CCK-8 binding to GR-1 transfected COS-7 cells, no competitor (FIG. 3).
Experiment [9] shares this target. Put plainly: radioligand saturation binding, GR-1 transfected COS-7 cells.

In the case of “gastrin I (from UniProt P01350 76-92) (peptide)”, in [1], the IC50 came out at 0.26 nM. Further, in experiment [2], the free cytosolic calcium, [Ca²⁺] turned out to be 142 nM; the free cytosolic calcium, [Ca²⁺], after chelation of extracellular calcium by EGTA (2.5 mM) came out at 88.5 nM; the level of Ins-1,3,4,5-P₄, increase amounted to 272%; the level of Ins-1,4,5-P₃, increase over control came to 741%. The IC50 in [3] amounted to 0.4 nM.
In the case of `Cc1cccc(NC(=O)N[C@@H]2N=C(c3ccccc3)c3ccccc3N(C)C2=O)c1` [L365,260], the “higher affinity than L364,718” value in experiment [4] is reported as “approximately 40 fold”. Moreover, the IC50 in experiment [5] worked out at 130 nM.
With “CCK-8-desulfate (from UniProt P06307 96-103) (peptide)”, the IC50 in experiment [3] is 1.5 nM.
As to `CSCC[C@H](NC(=O)[C@H](Cc1ccc(O)cc1)NC(=O)[C@@H](N)CC(=O)O)C(=O)NCC(=O)N[C@@H](Cc1c[nH]c2ccccc12)C(=O)N[C@@H](CCSC)C(=O)N[C@@H](CC(=O)O)C(=O)N[C@@H](Cc1ccccc1)C(N)=O` [CCK-8-desulfate], the IC50 in [6] stood at 1.5 nM; in experiment [5] (intact GR-1 transfected COS-7 cells, 40 pM 125I-CCK-8 radioligand, 80 min at 37°C, read-out: IC₅₀), 1.4 nM.
For “CCK-8 (from UniProt P06307 96-103) (peptide)”, the IC50 is 0.09 nM in [1] and 0.08 nM in experiment [3].
With “¹²⁵I-CCK-8 (from UniProt P06307 96-103) (peptide)”, the dissociation constant (Kd) worked out at 0.27 nM in experiment [7] and 0.08 nM in experiment [9]. Further, the Maximum binding in the absence of competitor (100%) in [8] was determined as 5.2 pM.
Take `CN1C(=O)[C@@H](NC(=O)c2cc3ccccc3[nH]2)N=C(c2ccccc2)c2ccccc21` [L364,718]: in experiment [5] (read-out: IC₅₀), the IC50 was found to be 19 nM.

The Kd is a measure of binding affinity in units of concentration.
